Columns and labels:
[1] = test system: rAmpC CMH-4 from E. cloacae 13047; test: Assay for ESAC and class B metallo-β-lactamase activity (nitrocefin hydrolysis with clavulanic acid or EDTA); type: biochemical; details: 2 mM test substance, 500 nM rAmpC, 500 µM nitrocefin, 30 °C, 8 min
Protocol: (§1) The reactions carried out in the absence and presence of EDTA with purified rAmpC enzymes using the reporter substrate, nitrocefin, were performed. […] The class C β-lactamases are functionally cephalosporinases that are generally resistant to clavulanic acid. However, some AmpCs which show resistance to oxyimino-cephalosporins and are commonly sensitive to clavulanic acid were termed extended-spectrum AmpC β-lactamases (ESAC), similar to the extended-spectrum β-lactamases (ESBLs) of the A class according to the Bush-Jacoby classification. […] To test this aspect of ESAC activity, reactions were performed in the presence of clavulanic acid.
(§2) For each panel, all reactions contained 500 nM rAMpC protein and 500 µM nitrocefin.
(§3) The reactions testing ESBL activity (related to the observation that most ESBL enzymes are inhibited by clavulanic acid) were performed in the absence or presence of 2 mM clavulanic acid. Class B β-Lactamase activity was tested by reactions performed in the absence or presence of 2 mM ethylenediaminetetraacetic acid (EDTA).

[2] = test system: rAmpC CNE-1 from C. neteri SSMD04; test: as above; type: biochemical; details: 2 mM test substance, 500 nM rAmpC, 500 µM nitrocefin, 30 °C, 8 min
Protocol: as §1, §2, §3

[3] = test system: rAmpC CNE-2 from C. neteri 33855; test: as above; type: biochemical; details: 2 mM test substance, 500 nM rAmpC, 500 µM nitrocefin, 30 °C, 8 min
Protocol: as §1, §2, §3

[4] = test system: CC1(C)S[C@@H]2[C@H](NC(=O)[C@H](N)c3ccccc3)C(=O)N2[C@H]1C(=O)O; test: purified protein, by the assay type; details: 37.0 °C
[5] = test system: CC1=C(C(=O)O)N2C(=O)[C@@H](NC(=O)[C@H](N)c3ccccc3)[C@H]2SC1; test: purified protein, by the assay type; details: 37.0 °C
[6] = test system: CO/N=C(\C(=O)N[C@@H]1C(=O)N2C(C(=O)O)=C(COC(N)=O)CS[C@H]12)c1ccco1; test: purified protein, by the assay type; details: 37.0 °C
[7] = test system: CO[C@@]1(NC(=O)Cc2cccs2)C(=O)N2C(C(=O)O)=C(COC(N)=O)CS[C@@H]21; test: purified protein, by the assay type; details: 37.0 °C
[8] = test system: C[C@@H](O)[C@H]1C(=O)N2C(C(=O)O)=C(SCCN=CN)C[C@H]12; test: purified protein, by the assay type; details: 37.0 °C
[9] = test system: O=C(Cc1cccs1)N[C@@H]1C(=O)N2C(C(=O)O)=C(/C=C/c3ccc([N+](=O)[O-])cc3[N+](=O)[O-])CS[C@H]12; test: purified protein, by the assay type; details: pH 7.0; 30.0 °C
[10] = target: rAmpC CNE-1 from C. neteri SSMD04 (Cedecea neteri, UniProt A0A089PY88); details: CNE-1 compared with CDA-1 (ref 13)
[11] = target: rAmpC CMH-4 from E. cloacae ATCC 13047 (Enterobacter cloacae subsp. cloacae, UniProt A0A0H3CN55); test: Michaelis-Menten kinetic analysis of substrate hydrolysis by purified rAmpC; details: CMH-4 compared with E. cloacae P99 AmpC (ref 29)
[12] = test system: CDA-1 (AmpC from C. davisae); details: cited from earlier work
[13] = test system: Cc1nnc(SCC2=C(C(=O)O)N3C(=O)[C@@H](NC(=O)Cn4cnnn4)[C@H]3SC2)s1; test: purified protein, by the assay type; details: 37.0 °C

With O=C(O)[C@H]1/C(=C/CO)O[C@@H]2CC(=O)N21 [clavulanic acid] the “Inhibition of nitrocefin hydrolysis” value [1] was “completely inhibited”, the “Inhibition of nitrocefin hydrolysis” value [2] was “not inhibited” and the “Inhibition of nitrocefin hydrolysis” value [3] was “not inhibited”.
Compound “(Enterobacter cloacae subsp. cloacae ATCC 13047)” has a Km [4] of 7 µM, a Km [5] of 6.8 µM and a Km [6] of 0.35 µM. For the same compound, the Km [7] was 12 µM, the Km [8] was 0.85 µM and the Km [9] was 11 ± 2 µM.
In the case of CO[C@@]1(NC(=O)Cc2cccs2)C(=O)N2C(C(=O)O)=C(COC(N)=O)CS[C@@H]21 [Cefoxitin, cefoxitin], the “Km, fold higher than for CDA-1 from C. davisae” value [10] is reported as 100 fold.
For O=C(Cc1cccs1)N[C@@H]1C(=O)N2C(C(=O)O)=C(/C=C/c3ccc([N+](=O)[O-])cc3[N+](=O)[O-])CS[C@H]12 [nitrocefin], the “kcat, fold less than for AmpC from E. cloacae P99” value [11] was ~ 100 fold.
For C[C@@H](O)[C@H]1C(=O)N2C(C(=O)O)=C(SCCN=CN)C[C@H]12 [Imipenem, imipenem], the Km [12] is given as about 2 µM.
In the case of O=C(O)CN(CCN(CC(=O)O)CC(=O)O)CC(=O)O [EDTA, ethylenediaminetetraacetic acid], the “Inhibition of nitrocefin hydrolysis” value [1] is reported as “hydrolyzed the substrate, nitrocefin, in the presence of EDTA”, the “Inhibition of nitrocefin hydrolysis” value [2] is reported as “hydrolyzed the substrate, nitrocefin, in the presence of EDTA” and the “Inhibition of nitrocefin hydrolysis” value [3] is reported as “hydrolyzed the substrate, nitrocefin, in the presence of EDTA”.
With (Cedecea neteri) the Km [4] was 72 µM, the Km [5] was 2 µM and the Km [6] was 5 µM. For the same compound, the Km [7] was 48 µM, the Km [8] was 5 µM and the Km [13] was 67 µM. It also gave a Km [9] of 46 ± 5 µM, a kcat [9] of 1.93 ± 0.16 s⁻¹ and a kcat/Km [9] of 41900 M⁻¹ s⁻¹.
